Laboratory results from article PMC4507180.
Positions count from the first letter of the chain named.

Columns and labels:
[1] = target: DndB protein of Salmonella enterica serovar Cerro 87 (Salmonella enterica serovar Cerro 87); assay: SEC; HiLoad 16/60 Superdex 200; 20 mM Tris-HCl pH 8.0, 150 mM NaCl; 0.7 mL/min; calibrated with myoglobin, ovalbumin, albumin, phosphorylase b, gamma-globulin; native mass 79 kDa
[2] = target: T1, DndB C29S C29S (Salmonella enterica serovar Cerro 87) (UniProt E2D676); assay: EMSA; conditions: EMSA: 20 mM Tris-HCl pH 8.0, 50 mM KCl, 10 mM MgCl2, 5 mM EDTA, 10 mM DTT, 5% glycerol, room temperature 30 min, 20 nM DNA; footprinting: 25 C 30 min, 200 ng …
T1 sequence: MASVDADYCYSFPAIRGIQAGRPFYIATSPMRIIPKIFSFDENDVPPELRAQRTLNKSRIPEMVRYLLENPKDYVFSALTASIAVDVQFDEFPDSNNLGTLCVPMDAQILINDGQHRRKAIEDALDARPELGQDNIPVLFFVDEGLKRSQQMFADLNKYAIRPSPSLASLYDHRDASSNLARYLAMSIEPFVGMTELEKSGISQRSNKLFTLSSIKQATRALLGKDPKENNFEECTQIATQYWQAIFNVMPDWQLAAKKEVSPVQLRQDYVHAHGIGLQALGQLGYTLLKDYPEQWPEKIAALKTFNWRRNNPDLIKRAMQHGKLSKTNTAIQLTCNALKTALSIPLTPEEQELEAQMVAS

[3] = target: T2, DndB (Salmonella enterica serovar Cerro 87) (UniProt E2D676); assay: EMSA; conditions: EMSA: 20 mM Tris-HCl pH 8.0, 50 mM KCl, 10 mM MgCl2, 5 mM EDTA, 10 mM DTT, 5% glycerol, room temperature 30 min, 20 nM DNA; footprinting: 25 C 30 min, 200 ng …
T2 sequence: T1 sequence with S29C

Substance	stoichiometry N [1]	binding [2]	binding [3]
DndB protein of Salmonella enterica serovar Cerro 87 (natural protein)	2		
GCTGTAATCCGTGTAAAAATCGAATGAATTGAGTTACGTGATATTTTACGTAATGCTTAATAAAATTTATAGTTTTTTTTATGTTTTACGTGATTTTTTGCGTACAGGGTTCCATATCTGAGA (double strand) [B1]		90 nM	300 nM
